This is an account of results in the DeepSol protein solubility set.

This series in a line: soluble on expression in E. coli; label from the status in PepcDB or PDB records.
Turning to “MSMENFAQLLEESFTLQEMNPGEVITAEVVAIDQNFVTVNAGLKSESLIDVAEFKNAQGEIEVKVGDFVTVTIESVENGFGETKLSREKAKRAADWIALEEAMENGDILSGIINGKVKGGLTVMISSIRAFLPGSLVDVRPVKDTSHFEGKEIEFKVIKLDKKRNNVVVSRRAVLEATLGEERKALLENLQEGSVIKGIVKNITDYGAFVDLGGIDGLLHITDLAWRRVKHPSEVLEVGQEVEAKVLKFDQEKQRVSLGMKQLGEDPWSGLTRRYPQGTRLFGKVSNLTDYGAFVEIEQGIEGLVHVSEMDWTNKNVHPSKVVQLGDEVEVMILEIDEGRRRISLGMKQCQANPWEEFAANHNKGDKISGAVKSITDFGVFVGLPGGIDGLVHLSDLSWTESGEEAVRKYKKGEEVEAVVLAIDVEKERISLGIKQLEGDPFGNFISVNDKGSLVKGSVKSVDAKGAVIALSDEVEGYLPASEFAADRVEDLTTKLKEGDEVEAVIVTVDRKNRSIKLSVKAKDAKESREALNSVNAAANANAGTTSLGDLLKAKLSGEQELEHHHHHH”, the “soluble on expression in E. coli” value was “soluble”.

“MSMGKQGVKTAVPKLRFPEFRHSEAWELKKLSCFLVEQKKRNKNLSFGPQEVLSVSGEHGCVNQIELLGRSYAGVSLANYHVVETGDIVYTKSPLKRNPFGIIKENKGKPGVVSTLYAVYRTTVFGNPAFLDHYFSGDYNLNSYLQPIVRKGAKNDMKVSNAAVLAGEVFAPEVEEQKKIADFLTSLDDLISVQVLKVEALKVHKRGLMQELFPREGEASPRLRFPEFSNASGWTLGKASDIIDVLQGYGFPERLQGGREGNFPFYKVSDISACVDAGGILLDKANNHIDADVLEELRAKLMPIGSTVFAKIGEAIRSNKRAITSRPCLVDNNVAGVKAITGLAHDRFVYYMWCQIPLIEYAGGVVPAVKKSLMEQIPVCYPKFDEQQRIADFLSSLDAKIAAEFDQLAALRTHKKGLMQQLFPLSEVGLLEHHHHHH”: the “soluble on expression in E. coli” value is “soluble”.

Consider “MSMIETWTAVDQYVSDVLIPKDSTLEEVLQVNAAANLPAHDVSPTQGKFLQLLVQIQGARNILEIGTLGGYSTIWLARGLSSGGRVVTLEASEKHADIARSNIERANLNDRVEVRTGLALDSLQQIENEKYEPFDFIFIDADKQNNPAYFEWALKLSRPGTVIIGDNVVREGEVIDNTSNDPRVQGIRRFYELIAAEPRVSATALQTVGSKGYDGFIMAVVKE”, for which the “soluble on expression in E. coli” value was “soluble”.

Regarding “MSMIHKFSMNGYNIVLDVNGGAVHVLDDVAYDLLDFYKEKSKEEILEILKSKYQEEKINEAYEEILNLEKEGLLYTEDTYQYHPSFVHREPVVKALCLNVAHDCNLKCKYCFAAQGDFGGEKELMSFEVGKAAIDYLIANSGSRKNLEIDFFGGEPLMNFEVVKQLVDYGRSVEKDYNKNIRFTITTNGVLLNDEIIDYINENMHNVVLSLDGRKEVNDNMRPTLNDKGSYDITLPRFKKLVEKRSKDKYYYIRGTFTRDNLDFSKDVMHFADLGFKLTSVEPVVGDESNPYALREEDLPKIFEEYEKFAVEYADRQLQGDGFKFFHFMIDLNQGPCVIKRITGCGAGNEYLSVTPNGDIYPCHQFVGNEEFKMANIFDEEIVLPENLKNMFREAHVYTKEECKQCWNKFYCSGGCHANAINFNSDISKPYELGCEMQRKRTECSIMIQAKLMLEGATN”, the “soluble on expression in E. coli” value is recorded as “not soluble”.

As for “MSNDGDLNIDNLITRLLEVRGCRPGKPVTMSEAEIRALCHKSREIFLSQPILLELEAPLKICGDIHGQYNDLLRLFEYGGFPPEANYLFLGDYVDRGKQSLETICLLLAYKVKYPENFFLLRGNHECASINRIYGFYDECKRRFSIKLWKTFTDCFNCLPIAALIDEKIFCCHGGLSPDLQNMEQIRRVMRPTDVPDTGLLCDLLWSDPDKDVTGWGENDRGVSFTFGPDVVAKFLNRHDLDLICRAHQVVEDGYEFFAKRQLVTLFSAPNYCGEFDNAGGMMSVDETLMCSFQILKPSEKKAKYQYQGMNSGRPAVGGGRPGTTAGKK”, the “soluble on expression in E. coli” value is recorded as “not soluble”.

Take “MSNGGKRPPEDDSKLPYYKLVVIGDGGVGKSSLTIQFFQKQFVDYYDPTIEDQYIQHCEIDGNWVIMDVLDTAGQEEFSAMREQYIRGGRGFLLVFSVTERKSFEEAHKLYNQVLRVKDRSEYPVLLVANKVDLINQRVVSEQEGRELAAQLKLMYIETSAKEPPVNVDAAFHELVRIVRSFPSDEGDHEASMASVPRTKKRKDKGKCLIS”: the “soluble on expression in E. coli” value is given as “soluble”.

Consider “MSNHIDRDVINALIAGHFADPFSVLGMHRTDAGLEVRALLPDATDVWVIEPKTGRKVGKLECLDSRGFFSGVLPRRKNAFRYQLAVTWHGQQNLIDDPYRFGPLLQ”, for which the “soluble on expression in E. coli” value is “not soluble”.

Consider “MSNKTSIEGLSALLHTLMLIPQHRWITVRELQQQLALLDIHRTTRSIKRYLDEVIVEVFNVECDSMSMPHVYRKTSEQLLKLNKQEMLYWQLTNKYLLPLVPDALNYGQGSSSERDKPLPHKASAHSKEQEWLAKVHVVLPTIREWNDEQRQVLNAVHTALLHNRMLKISSQVLQQEKALIEPLGLSVQCDALLLLFRLSGQHTIRTLALPLIDEATVSTFSFTYPTDFNLERFMREHDGVSAS”, for which the “soluble on expression in E. coli” value was “not soluble”.

Consider “MSNNNKYFTITKKQYKKMRRNKIELLFNVKVLKKKNGRQKFKILHEVENKPKIPIKIIEDQPESPKPLKPPKPPKPPKGPDNPEEPDSPEEPKETDQPGGPDNPNAGNKKMPTPEEYVTRKEFNEFKDSNNQRLTKIENKVDKLEVKVDKLAEIVQTQGEEIKELKVEQKAQSETLQLILKTLQKMNDRLDRMETRLDKIDSPKLEHHHHHH”, for which the “soluble on expression in E. coli” value is recorded as “soluble”.

“MSNPITITESAQSHFAKLLAQQPEGTNIRVFVVNPGTQNAECGVSYCPPEAVEATDTEYPFSGFSAYVDELSLPFLEEAVIDFVTDKMGSQLTLKAPNAKMRKVSDDASLMERVEYALQTQVNPQLAGHGGHVRLISISDDGVALVQFGGGCNGCSMVDVTLKEGIEKELLAQFAGELTAVRDSTEHDRGEHSYY”: the “soluble on expression in E. coli” value is “not soluble”.

Consider “MSNPQDDKPIDQEQEAHVILKVKSQDGDEVLFKNKKSAPLKKLMYVYCDRRGLKLDAFAFIFNGARIGGLETPDELDMEDGDVIDACRAMSGGLRANQRQWSYMLFDHNGL”, for which the “soluble on expression in E. coli” value was “not soluble”.

With “MSNQRDYTLIIDKSGSMSIIEPKFQKSRWELVQESTLALARKCDQLDANGITVYTFSGKFRRYDNVNASKVEQIFQENEPVGGTNLTAVLQDALNNFLQRKKSNQAPTGETILVITDGEPNDRRSVFEIIIQASKCLDADEELAISFMQIGNDPSATKFLQALDDQLMEVGAKFDIVDTVTFDEMEDLTLTEVLLNAIEDLEHHHHHH”, the “soluble on expression in E. coli” value is “soluble”.

On to “MSNVVVCALYKFVSLPHFESLREPLLSMMEQAEIKGTLLLASEGINGTVAGNQAAIDALLIWLNQQNGLENITYKLSFDDEMPFYRTKVKLKKEIVTMGVEGIDPLKVVGTYVKPKDWNALISDPEVVLVDTRNDYEVQIGTFKNAINPVTETFREFPEYVKQNLDPAKHKKVAMFCTGGIRCEKSTAYLKEQGFEEVYHLEGGILKYLEEVNKAESLWEGECFVFDNRVAVDHDLKKGQYDQCNACRMPITEAEKLTPDYVQGVSCPHCIDKISEEQRKRFVERERQVNLAKSRNEAHIGSDVNHVIEARRQKKEALRKQSAEKNKAKQANALEHHHHHH”, for which the “soluble on expression in E. coli” value is listed as “soluble”.

For “MSPDFLVTHSGGFHADELLSSVILTRLFPQARLIRSRAPEWITPAPGRIIYDVGGAYDPAAGIFDHHQRGAPQRDDGQPYSSFGLIWKHYGREYLAASGLPDHHVEALHAAFDTGFVLPIDLTDNGALSPSGPLAGLMLPALLETLKPVFDEAEPAADDRAFHAALAIARSFVDAGIAQRAAKLRAEAIVYRAIGDAGQGRILELPRGMPFRPAIVKAGADHLLFVVHPREKDWCVTGIRRAEDGFELRADLPAAWAGLTNGELEAVCGIEGASFCHNGRFVAAAKTRDAALAMAELAVQEALSIGVLEHHHHHH”, the “soluble on expression in E. coli” value is given as “soluble”.

Consider “MSPIPLPVTDTDDAWRARIAAHRADKDEFLATHDQSPIPPADRGAFDGLRYFDIDASFRVAARYQPARDPEAVELETTRGPPAEYTRAAVLGFDLGDSHHTLTAFRVEGESSLFVPFTDETTDDGRTYEHGRYMDVDPAGADGGDEVALDFNLAYNPFCAYGGSFSCALPPADNHVPAAITAGERVDADLEHHHHHH”, for which the “soluble on expression in E. coli” value is “soluble”.

Turning to “MSQEIQPQATQLQPFSQACENNKVPILAVLKSAFANTTRVLEIGSGTGQHAVYFATNLPQLFWQTSDQAEYLEGIKARCLLQGHQLGINNLGFPITLDVTAPWPVNGTHIDAVFSANTLHIMSKSMVEAFFNGLGEYLPQLNTLCIYGPFNYQGHYTSDSNRQFDHFLKQRDSESGIRDIEWIIALAQAQGLTLVEDIAMPTNNRLLHFKHLLALEHHHHHH”, the “soluble on expression in E. coli” value is given as “soluble”.

As for “MSQEKTGLQRPVLAQLSPIAIRGHSDEGVKKLRRRNDDGCFGEALFKGNAPARSLLFGDDACHRRVENLYLLDNNPTNWSGIKTNLKREIPLLQDPTETFARMNKVMHQTLKYVKEVESINFSSRGVIDFNGEVMEDHQRIFLSVCTSVFANFSFSCQMDVEKLLSFLMALFENYSKENAYHNALHAADSVQMLFLILREKPATLIFTENEVILAFLATLSLGFVHPGVSNAFLARIDHPLVLVYGDMTTQQSAGLTALLYLLNREENRFIDLFANSGTQPFSQFLREILVETVLGTAPRLRSSLLRDLEKVAVADAVELNDIPILLAAVVILADNALALRPHAQFVNLAGLMVTEWLREAYEEEQRGMDPLVPNLRKQIYENGLGMAVDYCKVWLRPLITNIRALVPQDLYDNMEGNTEAPSMSEIQDFLVHLDSSNERWNDGSVPVIDIIRRITMHATSLDRKASKRAILNAASNRAVSGFLSRSSSMCLSPNGARMSAEVSEKKINQQPSRCEHYFSFLRLYDTYEKEGRPAAEFAAQLVFLALQLNPEYIGRYTHKGIDVCSKEECEEIAELIMKKEEAPTTAEVIASPLRDGEQTDGFILRLMEMYAERDRERERNDTLNSATNPTSNLRRTLKCYNPVYGGMYSGKKS”, the “soluble on expression in E. coli” value is “soluble”.
